B1: anti-HMG1 antibody S2 (antibody, V domains shown)
VH: EVQLLESGGGLVQPGGSLRLSCAASGFTFSGYMMVWVRQAPGKGLEWVSRISPSGGQTGYADSVKGRFTISRDNSKNTLYLQMNSLRAEDTAVYYCAREEGGSYGAFDIWGQGTMVTVSS
VL: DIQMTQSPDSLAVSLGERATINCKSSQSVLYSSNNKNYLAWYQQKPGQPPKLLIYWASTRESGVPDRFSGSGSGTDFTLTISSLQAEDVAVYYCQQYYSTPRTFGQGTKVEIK
notes: also called ATCC PTA-6142
B2: anti-HMG1 antibody S10 (antibody, V domains shown)
VH: EVQLLESGGGLVQPGGSLRLSCAASGFTFSWYDMWWVRQAPGKGLEWVSWIVPSGGITAYADSVKGRFTISRDNSKNTLYLQMNSLRAEDTATYYCARGNYGPSPFDYWGQGTLVTVSS
VL: DIQMTQSPGTLSLSPGERATLSCRATQSVRKNFLAWYQQKPGQAPRLLIYDASSRATGIPDRFSGSGSGTDFTLTISRLEPEDFAVYYCQQYGNSPIIFGQGTRLEIK

Columns and labels:
[1] = target: T1, native nuclear HMG1 prepared from 293H cells by freeze thaw (human, UniProt P09429 1-215); assay: HMG1 capture (sandwich) ELISA, FIG. 4B
T1 sequence (looked up): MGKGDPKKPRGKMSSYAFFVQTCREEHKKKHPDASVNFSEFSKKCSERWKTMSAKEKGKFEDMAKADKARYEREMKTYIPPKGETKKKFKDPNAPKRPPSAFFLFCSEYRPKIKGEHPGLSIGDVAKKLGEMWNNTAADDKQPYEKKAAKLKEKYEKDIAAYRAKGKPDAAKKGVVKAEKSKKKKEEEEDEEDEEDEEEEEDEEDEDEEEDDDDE
Description: Sandwich ELISA (soluble HMG1): Immunoplates (EIA/RIA plate, High binding, Costar) were coated with anti human IgG Fc at 10 μg/ml in PBS (pH 7.2) and incubated at 4° C. overnight. The coating reagent was removed and the plates were rinsed briefly with PBS. The plates were then blocked with 4% milk for 1 hour at 37° C. and rinsed with PBS. The anti-HMG1 antibodies were diluted in 4% milk. For serial dilutions, the antibodies were used at a starting concentration of 20 μg/ml. The diluted anti-HMG1 antibodies were then added into plate and incubated for 1 hr at 37° C. The plate was then washed 10 times with PBST (PBS/0.1% tween 20) and incubate with antigen (HMGB1, 2 μg/ml; or 0.7 μg/ml for native HMGB1) in 4% milk and incubated at 37° C. for 1 h. The plate was then wash 10 times and incubated with mouse anti-HMGB1, 1 μg/ml in 4% milk at 37° C. for 1 h. The plate was washed 10 times and incubated with anti-mouse IgG-HRP at 1:1000 at 37° C. for 1 h. The plate was then washed and developed. HRP activity was detected with Sureblue HRP substrate (KPL). Plates were read at 450 nm using a Kinetic Microplate Reader (Molecular Devices).

[2] = target: T2, recombinant HMG1 produced in E. coli as calmodulin binding protein (CBP) fusion (human); assay: BIAcore 3000; mAb amine-coupled to CM5, HMG1 injected in two-fold dilutions; steady-state model
T2 chain: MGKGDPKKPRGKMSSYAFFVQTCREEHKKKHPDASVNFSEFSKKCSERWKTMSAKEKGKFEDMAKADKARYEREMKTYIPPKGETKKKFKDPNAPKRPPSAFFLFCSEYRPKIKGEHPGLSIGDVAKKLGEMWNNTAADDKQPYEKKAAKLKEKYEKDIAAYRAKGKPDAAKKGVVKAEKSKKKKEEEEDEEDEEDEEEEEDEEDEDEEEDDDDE
Description: HMG1 Binding Affinity via BIAcore Analysis: All experiments were performed on a BIAcore 3000 instrument (BIAcore, Inc., Piscataway, N.J.). Briefly, each mAb was immobilized to a CM5 sensor chip using a standard amine coupling chemistry. Separately a reference (control) flow cell was also prepared. Two-fold, serial dilutions of HMG1 in instrument buffer were sequentially injected at a slow flow rate over the individual mAb and reference flow-cell surfaces. Following the binding and dissociation of HMG1, the mAbs surfaces were regenerated with a brief pulse of 1M NaCl-50 mM NaOH. At the end of each experiment, the binding curves were evaluated using a steady-state model available through the BIAevaluation software supplied by BIAcore, Inc. (Piscataway, N.J.).

[3] = target: T2, recombinant HMG1 produced in E. coli as …; assay: cell-based or functional assay
[4] = target: T2, recombinant HMG1 produced in E. coli as …; assay: ELISA; HMGB1 preincubated with antibody, then added to immobilised RAGE-Fc
Description: HMG1 binding to RAGE-Ig by ELISA: 50 μl/well of RAGE-Fc fusion protein at 5 μg/ml in PBS was added to each well of an ELISA plate and incubated overnight at 4° C. The plate was then blocked with 200 μl of 5% milk at 37° C. for 1 hr and washed 3× with PBS/Tween. 50 μl/well of diluted HMGB1 solution. For dose curves, HMGB1 concentrations started at 4 ug/ml in PBS. For antibody blocking the HMGB1 was preincubated in another plate with human anti-HMG1 antibodies or buffer, then transferred to the RAGE-coated plate. The plates were then incubated at room temperature for 2 hours and washed 3×. To detect any HMG1 bound to the immobilized RAGE-Fc a mixture of biotinylated mouse anti-HMG1 mAbs (10D4, 4H11, 3E10 and 5C12) each at 1 ug/ml, total Ab: 4 ug/ml, were added to each well and the plate was incubated for 1 hour at room temperature. The plate was then washed and Strepavidin-HPR was added to each well and incubated 15 min. The plate was then washed 3× and blotted dry. 100 μl of TMB developing agent was added and the plate read at 650 nm. Values were calculated as percent of inhibition with HMG1 alone equal to 0% inhibition. The data in FIG. 9 and summarized in Table 1 represent the average of two separate experiments.

Binder | binding result [1] | Kd [2] [µM] | IC50, inhibition of rHMG1 stimulated IL-1β release from human PBMCs [3] [mg/L] | IC50, inhibition of rHMG1 stimulated IL-6 release from human PBMCs [3] [µM] | IC50, inhibition of rHMG1 stimulated TNF-α release from human PBMCs [3] [mg/L] | percent inhibition of HMG1 binding to RAGE [4] [%] | IC50, inhibition of rHMG1 stimulated IL-12 release from human PBMCs [3] [mg/L]
B1 | binds | 0.036 | 0.22 | 0.000163 | 0.0642 | ≥ 35 | 
B2 | binds | 0.054 | 2.59 | 0.000324 | 0.875 | ≥ 35 | 1.13

Reference: patent publication US20090169546A1 (published 2009)
